# B1: Serine protease HTRA2, mitochondrial (Homo sapiens), O43464 (parent)
# chain: MAAPRAGRGAGWSLRAWRALGGIRWGRRPRLTPDLRALLTSGTSDPRARVTYGTPSLWARLSVGVTEPRACLTSGTPGPRAQLTAVTPDTRTREASENSGTRSRAWLAVALGAGGAVLLLLWGGGRGPPAVLAAVPSPPPASPRSQYNFIADVVEKTAPAVVYIEILDRHPFLGREVPISNGSGFVVAADGLIVTNAHVVADRRRVRVRLLSGDTYEAVVTAVDPVADIATLRIQTKEPLPTLPLGRSADVRQGEFVVAMGSPFALQNTITSGIVSSAQRPARDLGLPQTNVEYIQTDAAIDFGNSGGPLVNLDGEVIGVNTMKVTAGISFAIPSDRLREFLHRGEKKNSSSGISGSQRRYIGVMMLTLSPSILAELQLREPSFPDVQHGVLIHKVILGSPAHRAGLRPGDVILAIGEQMVQNAEDVYEAVRTQSQLAVQIRRGRETLTLYVTPEVTE
# partner: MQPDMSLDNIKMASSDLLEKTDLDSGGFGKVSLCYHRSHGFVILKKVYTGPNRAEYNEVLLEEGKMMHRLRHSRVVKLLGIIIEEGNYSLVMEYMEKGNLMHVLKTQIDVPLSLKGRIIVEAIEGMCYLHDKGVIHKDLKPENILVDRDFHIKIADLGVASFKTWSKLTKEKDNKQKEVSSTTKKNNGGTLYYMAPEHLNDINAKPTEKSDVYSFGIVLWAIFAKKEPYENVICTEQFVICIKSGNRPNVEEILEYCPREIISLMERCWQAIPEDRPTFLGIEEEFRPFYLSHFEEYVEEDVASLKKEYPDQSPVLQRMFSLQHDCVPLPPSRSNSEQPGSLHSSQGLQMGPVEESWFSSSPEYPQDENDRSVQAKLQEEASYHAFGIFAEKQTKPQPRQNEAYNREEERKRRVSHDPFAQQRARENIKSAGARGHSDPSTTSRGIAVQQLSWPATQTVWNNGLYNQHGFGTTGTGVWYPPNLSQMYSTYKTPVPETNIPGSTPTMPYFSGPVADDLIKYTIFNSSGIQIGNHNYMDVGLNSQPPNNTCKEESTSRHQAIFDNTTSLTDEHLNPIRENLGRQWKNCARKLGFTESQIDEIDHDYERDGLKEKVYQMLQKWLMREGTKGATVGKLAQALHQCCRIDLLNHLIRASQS
# Variants of: B1
# Settings: with ripk1_mouse Ripk1, Q60855
row,Variant,effect of a mutation on the interaction
1,S306A,disrupting interaction
